± gives the standard error. For some assays here: Variants at the floor of the assay were thinned out.
B1: glmS ribozyme (parent)
chain: AUAAAAGCGCCAGAACUACAGAAAUGUAGUUGACGAGGAGGAGGUUUAUCGAAUUUUCGGCGGAUGCCUCCAAA

Experiments:
Conditions in all cases: with glucosamine-6-phosphate
glucosamine-6-phosphate [1] = variants of: B1; assay: kcat; higher = faster cleavage; RNA array
Method in brief: (§1)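 Tiles of sequenced MiSeq chips were imaged over ~14 h at 37 °C. On them, barcoded ribozyme variants had been transcribed in situ by E. coli RNA polymerase and were tracked via a hybridised Cy3 probe while glucosamine-6-phosphate (40 μM to 10 mM) in HEPES/KCl/Mg(OAc)2 buffer flowed in. Per-tile medians, normalised to baseline and to non-cleaving reference variants, were fit to one- or two-exponential decays for kobs, and weighted Michaelis–Menten fits gave kcat and KM.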

glucosamine-6-phosphate [2] = variants of: B1; assay: KM; higher = weaker cofactor use; RNA array
Method in brief: as §1

glucosamine-6-phosphate [3] = variants of: B1; assay: self-cleavage kobs at 160 uM GlcN6P; higher = faster cleavage; RNA array
Method in brief: as §1

glucosamine-6-phosphate [4] = variants of: B1; assay: self-cleavage kobs at 640 uM GlcN6P; higher = faster cleavage; RNA array
Method in brief: as §1

glucosamine-6-phosphate [5] = variants of: B1; assay: self-cleavage kobs at 2500 uM GlcN6P; higher = faster cleavage; RNA array
Method in brief: as §1

glucosamine-6-phosphate [6] = variants of: B1; assay: self-cleavage kobs at 10000 uM GlcN6P; higher = faster cleavage; RNA array
Method in brief: as §1

glucosamine-6-phosphate [7] = variants of: B1; assay: self-cleavage kobs at 40 uM GlcN6P; higher = faster cleavage; RNA array
Method in brief: as §1

Row | Variant | kcat (glucosamine-6-phosphate [1]) [s⁻¹] | KM (glucosamine-6-phosphate [2]) [µM] | self-cleavage kobs at 160 uM GlcN6P (glucosamine-6-phosphate [3]) [s⁻¹] | self-cleavage kobs at 640 uM GlcN6P (glucosamine-6-phosphate [4]) [s⁻¹] | self-cleavage kobs at 2500 uM GlcN6P (glucosamine-6-phosphate [5]) [s⁻¹] | self-cleavage kobs at 10000 uM GlcN6P (glucosamine-6-phosphate [6]) [s⁻¹] | self-cleavage kobs at 40 uM GlcN6P (glucosamine-6-phosphate [7]) [s⁻¹]
1 | U30A A52U C70U | 7.84e-05 ± 3.9e-06 | 89.4 ± 24 | 4.9e-05 ± 1.3e-05 | 7.62e-05 ± 1.7e-05 | 7.31e-05 ± 1.4e-05 | 7.39e-05 ± 2.7e-05 | 
2 | U30C U46A | 1.46e-05 ± 6.8e-06 |  |  |  |  |  | < 1e-05
3 | G29U U69A | 5.85e-05 ± 1.1e-05 |  |  | 3.35e-05 ± 1e-05 | 6.77e-05 ± 9.3e-06 | 4.84e-05 ± 1.1e-05 | 
4 | U31A A33G C70A | 1.81e-05 ± 5.1e-06 |  |  |  |  |  | 
5 | U30A U47A | 0.00539 ± 0.0011 | 3150 ± 930 | 0.000206 ± 5.9e-05 | 0.000968 ± 0.00012 | 0.0025 ± 0.00032 | 0.00373 ± 0.00086 | 
6 | G29U A64G | 0.00507 ± 0.0025 |  | 0.000495 ± 0.00011 | 0.000939 ± 0.0002 | 0.00221 ± 0.00045 | 0.00594 ± 0.00078 | 0.000212 ± 3.2e-05
7 | G29U G41U | 8.68e-05 ± 1.2e-05 | 651 ± 270 |  | 5.08e-05 ± 1.6e-05 | 6.65e-05 ± 2.9e-05 | 7.94e-05 ± 2.1e-05 | 
8 | U31A A48U | 9.44e-05 ± 4.1e-05 |  |  | 4.25e-05 ± 1.5e-05 | 5.43e-05 ± 1.6e-05 | 0.000133 ± 4.7e-05 | 
9 | G29U C71G | 0.000186 ± 4.6e-05 |  | 6.19e-05 ± 9.3e-06 | 8.34e-05 ± 7.2e-06 | 0.000186 ± 2.6e-05 | 0.000186 ± 1.9e-05 | 3.23e-05 ± 9.4e-06
10 | U30C U56C | 0.000116 ± 7.6e-06 | 4270 ± 610 |  |  | 4.38e-05 ± 4.8e-06 | 8.1e-05 ± 7e-06 | 
11 | U30A A36U | < 1e-05 |  |  | < 1e-05 |  |  | 
12 | U31A G40U | 0.00159 ± 0.00017 | 1080 ± 240 |  | 0.000444 ± 0.00018 | 0.00109 ± 0.00024 | 0.00148 ± 0.00022 | 6.29e-05 ± 1.4e-05
13 | G29C A64G | 0.00121 ± 0.00056 |  | 0.000126 ± 2.9e-05 | 0.000339 ± 5.2e-05 | 0.000495 ± 0.00014 | 0.00181 ± 0.00034 | 3.98e-05 ± 1.1e-05
14 | G29U G40A | 0.000509 ± 4.9e-05 | 859 ± 180 | 7.2e-05 ± 1.3e-05 | 0.000221 ± 3.7e-05 | 0.000464 ± 6.4e-05 | 0.000441 ± 4.7e-05 | 2.61e-05 ± 7.8e-06
15 | G29U G40C | 0.000254 ± 6.3e-05 |  |  | 0.000105 ± 2.4e-05 | 0.000138 ± 3.6e-05 | 0.000281 ± 5.2e-05 | 
16 | U30A U31G | 0.0198 ± 0.0021 | 2040 ± 290 | 0.00148 ± 0.00031 | 0.00508 ± 0.0011 | 0.00933 ± 0.0019 | 0.0178 ± 0.003 | 0.000379 ± 4.9e-05
17 | G29C G40U | 0.000193 ± 6.2e-06 | 1880 ± 150 |  | 5.1e-05 ± 8.7e-06 | 0.000106 ± 1.3e-05 | 0.000165 ± 1.5e-05 | 
18 | G29U G37U | < 1e-05 |  |  |  |  | < 1e-05 | 
19 | G29U U45G | 0.000648 ± 0.00013 | 1660 ± 680 | 3.73e-05 ± 1.2e-05 | 0.000217 ± 2.8e-05 | 0.00064 ± 0.00013 | 0.000522 ± 5.5e-05 | 
20 | G29U U45A | 0.0141 ± 0.0034 | 2740 ± 820 | 0.000796 ± 0.00018 | 0.00237 ± 0.00044 | 0.00765 ± 0.0017 | 0.0103 ± 0.005 | 0.000225 ± 4.9e-05
21 | U30C C71G | 4.29e-05 ± 9.8e-06 |  |  | 4.3e-05 ± 1.8e-05 | 7.05e-05 ± 1.2e-05 | 3.35e-05 ± 7.1e-06 | 
22 | U30G U46A | 0.000655 ± 7e-05 | 3710 ± 930 |  |  | 0.000252 ± 5.8e-05 | 0.000483 ± 6.6e-05 | 
23 | U30C G63U | 1.08e-05 ± 3e-06 |  |  |  |  | < 1e-05 | 
24 | G29U U46C | 0.000262 ± 1.5e-05 | 1090 ± 140 | 3.52e-05 ± 1.6e-05 | 9.83e-05 ± 1.4e-05 | 0.000156 ± 4.3e-05 | 0.000242 ± 2.9e-05 | 
25 | G29U U46G | 0.00127 ± 0.00012 | 2110 ± 340 | 9.52e-05 ± 2e-05 | 0.000259 ± 5e-05 | 0.000689 ± 0.00011 | 0.00106 ± 0.00013 | 3.07e-05 ± 9.8e-06
26 | U30C G66A C67U | 6.3e-05 ± 4e-06 | 2940 ± 580 |  |  | 2.96e-05 ± 1.2e-05 | 4.86e-05 ± 1e-05 | 
27 | U30G C67G | 0.000155 ± 9.6e-06 | 2050 ± 310 |  | 3.99e-05 ± 9.3e-06 | 8.11e-05 ± 1e-05 | 0.000132 ± 1.6e-05 | 
28 | U30G C67U | 0.00191 ± 0.00047 | 924 ± 380 | 0.000289 ± 5.9e-05 | 0.000697 ± 0.00011 | 0.00139 ± 0.00022 | 0.00378 ± 0.0013 | 9.9e-05 ± 2.5e-05
29 | U30G C71A | 0.00126 ± 0.0004 | 1140 ± 560 | 0.000138 ± 2.2e-05 | 0.000344 ± 6.7e-05 | 0.00096 ± 0.00014 | 0.00119 ± 0.00018 | 7.85e-05 ± 1.2e-05
30 | U31A U46A | 0.00237 ± 0.00062 | 5680 ± 2600 | 4.27e-05 ± 1.9e-05 | 0.000292 ± 9.4e-05 | 0.000857 ± 0.0002 | 0.00149 ± 0.00018 | 3.33e-05 ± 1.3e-05
